From article PMC4562469 (Science translational medicine, 2014)

What was measured:
[1] = target: recombinant soluble human CD4 (human, UniProt P01730); experiment: ELISA
[2] = target: recombinant soluble rhesus CD4 (Macaca mulatta (rhesus macaque), UniProt P16003); experiment: ELISA
Sequence of recombinant soluble rhesus CD4 (P16003 26-396): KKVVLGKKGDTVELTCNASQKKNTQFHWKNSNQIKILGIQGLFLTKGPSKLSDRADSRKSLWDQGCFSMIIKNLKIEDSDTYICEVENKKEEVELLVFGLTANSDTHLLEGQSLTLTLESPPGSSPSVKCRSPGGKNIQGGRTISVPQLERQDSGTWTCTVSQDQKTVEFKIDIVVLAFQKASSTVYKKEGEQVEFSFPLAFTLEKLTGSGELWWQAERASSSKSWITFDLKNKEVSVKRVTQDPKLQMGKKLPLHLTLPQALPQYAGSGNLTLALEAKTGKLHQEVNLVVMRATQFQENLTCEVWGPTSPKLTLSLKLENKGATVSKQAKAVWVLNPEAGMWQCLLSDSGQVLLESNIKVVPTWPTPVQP

B1: mAb 2D5 (anti-CD4 monoclonal antibody) (antibody, V domains shown)
VH: QVKLQQSGPELKKPGETVKISCKASGYTFTDYSMHWVKQAPGKGLKWLGRINTETGEAKYVDDFMGHLAFSLETSASTAYLQINNLKNEDTATYFCARYDGYSWDAMDYWGQGTSVIVSS
VL: DIMLTQSPASLTVSLGQRATMSCRASQSVSTSRYSYMHWYQEKAGQPPQLLIKYASNLESGVPARFSGSGSGTDFTLNIHPVEAEDTATYYCQHSWEIPYTFGGGTKLEIK
B1: binds [1]; binds [2].
